Legend:
[1] = biological target: T1, human NPR1 on HEK293/hNPR1.myc.DDK cells (0 hANP) (human, UniProt P16066 33-1061); experiment: cell-based or functional assay
T1 sequence: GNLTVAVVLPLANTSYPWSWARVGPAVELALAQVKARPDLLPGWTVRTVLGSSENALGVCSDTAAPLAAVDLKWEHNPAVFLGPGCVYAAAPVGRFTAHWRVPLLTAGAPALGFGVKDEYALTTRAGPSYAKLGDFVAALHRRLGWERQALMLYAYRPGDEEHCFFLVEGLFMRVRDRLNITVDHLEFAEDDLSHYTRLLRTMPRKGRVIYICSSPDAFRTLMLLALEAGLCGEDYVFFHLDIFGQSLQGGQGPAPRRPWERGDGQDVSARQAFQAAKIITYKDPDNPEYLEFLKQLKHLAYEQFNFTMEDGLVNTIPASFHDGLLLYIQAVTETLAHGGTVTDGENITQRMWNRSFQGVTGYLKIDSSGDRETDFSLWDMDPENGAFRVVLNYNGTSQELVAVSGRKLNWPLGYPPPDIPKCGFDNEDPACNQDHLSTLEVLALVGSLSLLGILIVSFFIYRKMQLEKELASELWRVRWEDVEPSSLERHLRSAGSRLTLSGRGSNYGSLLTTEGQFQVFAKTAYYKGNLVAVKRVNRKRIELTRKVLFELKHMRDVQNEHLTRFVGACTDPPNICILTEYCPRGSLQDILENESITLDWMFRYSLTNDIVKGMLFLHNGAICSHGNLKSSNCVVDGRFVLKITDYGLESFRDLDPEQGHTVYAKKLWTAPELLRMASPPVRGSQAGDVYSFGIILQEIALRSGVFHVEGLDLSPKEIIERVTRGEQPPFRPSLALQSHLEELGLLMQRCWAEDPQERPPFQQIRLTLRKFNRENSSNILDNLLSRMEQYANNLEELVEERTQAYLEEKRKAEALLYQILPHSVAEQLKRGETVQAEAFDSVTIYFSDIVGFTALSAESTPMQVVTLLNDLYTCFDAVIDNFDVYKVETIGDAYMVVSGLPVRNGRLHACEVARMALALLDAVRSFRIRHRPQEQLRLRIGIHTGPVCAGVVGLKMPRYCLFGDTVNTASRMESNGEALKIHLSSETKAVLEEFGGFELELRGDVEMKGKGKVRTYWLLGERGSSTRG

[2] = biological target: T1, human NPR1 on HEK293/hNPR1.myc.DDK …; experiment: ECL cell binding (MSD), 0 hANP
[3] = biological target: T2, human NPR1 on HEK293/hNPR1.myc.DDK cells with 10 nM hANP (NPR1-ANP complex) (human, UniProt P01160 124-151); experiment: ECL cell binding (MSD), +10 nM hANP
T2 construct: also called NPR1-ANP Complex on the Cell Surface
T2 sequence: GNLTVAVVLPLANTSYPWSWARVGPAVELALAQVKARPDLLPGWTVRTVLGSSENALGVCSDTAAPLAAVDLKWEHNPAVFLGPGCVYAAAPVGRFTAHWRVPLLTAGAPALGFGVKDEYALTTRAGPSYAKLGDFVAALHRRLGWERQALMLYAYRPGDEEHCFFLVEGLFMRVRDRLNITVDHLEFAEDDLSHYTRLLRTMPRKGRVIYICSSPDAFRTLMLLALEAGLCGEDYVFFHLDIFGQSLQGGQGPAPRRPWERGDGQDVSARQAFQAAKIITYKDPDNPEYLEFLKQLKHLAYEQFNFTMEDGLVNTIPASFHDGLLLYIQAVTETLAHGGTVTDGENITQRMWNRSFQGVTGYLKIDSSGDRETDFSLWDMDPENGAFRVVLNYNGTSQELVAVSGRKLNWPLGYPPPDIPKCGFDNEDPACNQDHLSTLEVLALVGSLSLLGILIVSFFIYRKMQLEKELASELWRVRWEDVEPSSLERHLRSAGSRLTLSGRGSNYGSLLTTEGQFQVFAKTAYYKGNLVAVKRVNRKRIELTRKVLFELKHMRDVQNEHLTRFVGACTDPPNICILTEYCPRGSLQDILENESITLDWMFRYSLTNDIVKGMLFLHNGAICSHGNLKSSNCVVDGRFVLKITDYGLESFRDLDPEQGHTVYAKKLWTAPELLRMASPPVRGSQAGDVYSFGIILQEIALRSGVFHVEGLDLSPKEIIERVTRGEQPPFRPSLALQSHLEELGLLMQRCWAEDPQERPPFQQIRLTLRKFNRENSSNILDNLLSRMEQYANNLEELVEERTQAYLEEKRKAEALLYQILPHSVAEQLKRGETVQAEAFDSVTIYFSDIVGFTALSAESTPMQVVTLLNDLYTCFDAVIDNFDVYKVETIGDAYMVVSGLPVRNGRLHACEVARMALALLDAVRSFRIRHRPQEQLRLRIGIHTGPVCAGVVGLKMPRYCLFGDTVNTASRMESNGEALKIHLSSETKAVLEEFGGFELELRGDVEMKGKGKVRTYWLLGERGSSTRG
T2 sequence (peptide): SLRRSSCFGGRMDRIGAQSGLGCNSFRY

mfNPR1-mFc:hBNP complex = biological target: T3, mfNPR1-mFc:hBNP complex (monkey; human, UniProt P16860 103-134); experiment: SPR Biacore, mAb captured by anti-human Fc, 37C
T3 construct: Receptor-Fc pre-complexed with 10-fold hBNP
Procedure, shortened: (§1)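 Read-out is KD from real-time SPR (Biacore 4000). Purified mAbs sat on an anti-human Fc capture surface (mouse mAb or goat anti-Fcγ polyclonal) on CM5. Runs used HBS-ET: 10 mM HEPES, 150 mM NaCl, 3 mM EDTA, 0.05% Tween-20, pH 7.4.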

mNPR1-mFc [4] = biological target: T4, mNPR1-mFc (mouse); experiment: SPR Biacore, mAb captured by anti-human Fc, 37C
T4 construct: also called mouse NPR1 extracellular domain expressed with a C-terminal mouse IgG2a
T4 chain: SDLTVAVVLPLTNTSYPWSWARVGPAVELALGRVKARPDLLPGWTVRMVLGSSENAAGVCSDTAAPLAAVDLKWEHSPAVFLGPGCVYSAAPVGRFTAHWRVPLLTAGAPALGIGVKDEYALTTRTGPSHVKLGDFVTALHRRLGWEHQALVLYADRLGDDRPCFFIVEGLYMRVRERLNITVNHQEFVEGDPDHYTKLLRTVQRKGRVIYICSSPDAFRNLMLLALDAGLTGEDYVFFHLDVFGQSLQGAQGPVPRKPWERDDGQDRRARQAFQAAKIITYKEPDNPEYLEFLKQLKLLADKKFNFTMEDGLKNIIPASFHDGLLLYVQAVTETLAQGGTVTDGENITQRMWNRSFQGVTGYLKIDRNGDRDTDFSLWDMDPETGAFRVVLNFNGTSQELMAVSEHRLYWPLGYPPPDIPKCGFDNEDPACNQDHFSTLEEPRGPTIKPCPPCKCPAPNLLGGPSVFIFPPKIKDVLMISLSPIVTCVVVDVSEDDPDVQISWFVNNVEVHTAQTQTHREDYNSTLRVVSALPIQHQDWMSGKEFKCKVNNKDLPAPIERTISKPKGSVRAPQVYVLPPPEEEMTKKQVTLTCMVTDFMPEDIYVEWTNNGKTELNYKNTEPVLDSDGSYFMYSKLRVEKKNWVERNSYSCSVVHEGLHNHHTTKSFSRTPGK
Procedure, shortened: as §1

mNPR1-mFc [5] = biological target: T4, mNPR1-mFc; experiment: SPR Biacore, mAb captured by anti-human Fc, 25C
Procedure, shortened: as §1

[6] = biological target: T1, human NPR1 on HEK293/hNPR1.myc.DDK …; experiment: ECL cell binding (MSD), HEK293/hNPR1.myc.DDK cells, 0 hANP
Experimental: Experiments were carried out according to the following procedure. Cells from lines described above were rinsed once in 1×PBS buffer without Ca²⁺/Mg²⁺ nd incubated for 10 minutes at 37° C. with Enzyme Free Cell Dissociation Solution to detach cells from a flask. All cells were washed once with 1×PBS with Ca²⁺/Mg²⁺ and counted with a Cellometer™ Auto T4 cell counter (Nexcelom Bioscience). Approximately 2.0×10⁴ HEK293/hNPR1.myc.DDK or HEK293 cells were seeded separately onto 96-well carbon electrode plates (MULTI-ARRAY high bind plate, Meso Scale Discovery (MSD, Rockville, MD)) and incubated for 1 hour (h) at 37° C. Nonspecific binding sites were blocked by 2% BSA (w/v) in 1×PBS with Ca²⁺/Mg²⁺for 1 h at room temperature (RT). HEK293/hNPR1.myc. […] The plate-bound antibodies were detected with SULFO-TAG™-conjugated goat polyclonal anti-human IgG antibody specific for heavy and light chains (Jackson Immunoresearch, West Grove, PA) for 1 h, RT.
After washes, plates were developed with Read Buffer (MSD, Rockville, MD) according to manufacturer's recommended procedure and luminescent signals were recorded with a SECTOR Imager 600 (MSD, Rockville, MD). Luminescence intensity, measured in relative light units (RLU), was recorded to indicate the binding intensity of each antibody at the range of concentrations.

B1: mAb22805 (antibody, human IgG4, V domains shown)
VH: QVQLVESGGGVVQPGRSLRLSCAASGFTFSTYGMHWVRQAPGKGLEWVALIWNDGSNKYYADSVKGRFTISRDNSKNTLDLQMNSLRAEDTAVYYCARLNTRITGTTNLDYWGQGTLVTVSS
VL: DIQMTQSPSSLSASVGDRVTVSCRASQSIANYLNWYQQKPGKAPNLLIYGAYTLQSGVPSRFRGSGSGTDFTLTISSLQPEDFATYYCQQTYSTPPITFGQGTRLEIK
[1]
  % Activation (vs ANP max), Expt 1: 91.6%
  % Activation (vs. ANP max), Expt II: 119%
  EC50 (nM), calcium flux, Expt 1: 239 nM
  EC50 (nM), calcium flux, Expt II: 112 nM
[2]
  Ratio at 3.7 nM Ab concentration of Cell Binding Signal (RLU) to HEK293/hNPR1.myc.DKK relative to parental HEK293: 1 ratio
[3]
  EC50: 0.65 nM
  Ratio at 3.7 nM Ab concentration of Cell Binding Signal (RLU) to HEK293/hNPR1.myc.DKK relative to parental HEK293: 222 ratio
mfNPR1-mFc:hBNP complex
  100 nM Ag Bound (RU): 150 RU
  Kd: 3.39 nM
  koff: 0.000202 s⁻¹
  kon: 59600 M⁻¹ s⁻¹
  t½: 57.2 min
mNPR1-mFc [4]
  100 nM Ag Bound (RU): 0 RU
  binding result: no binding (tested: 100 nM)
mNPR1-mFc [5]
  100 nM Ag Bound (RU): 0 RU
[6]
  binding result: no binding (tested: ratio below 3 at 3.7 nM Ab)

B2: mAb22810 (antibody, human IgG4, V domains shown)
VH: EVQLVESGGGLVKPGGSLRLSCVVSGFTFRIYTMNWVRQAPGKGLEWVASISSSSSFINYADSLKGRFTISRDNAQNSLYLQMNSLRAEDTAIYYCARAAGNDVLPGRMDVWGQGTSVTVSS
VL: EIVLTQSPGTLSLSPGERATLSCRASQSVSSNYLAWYQQKPGQVPSLLIYGASSRATGIPDRFSGSGSGTDFTLTITRLEPEDFAVYYCQQYGISPWTFGQGTKVEIK
[1]
  % Activation (vs. ANP max), Expt II: 126%
  EC50 (nM), calcium flux, Expt II: 50.8 nM
[2]
  Ratio at 3.7 nM Ab concentration of Cell Binding Signal (RLU) to HEK293/hNPR1.myc.DKK relative to parental HEK293: 1 ratio
[3]
  EC50: 3.7 nM
  Ratio at 3.7 nM Ab concentration of Cell Binding Signal (RLU) to HEK293/hNPR1.myc.DKK relative to parental HEK293: 24 ratio
[6]
  binding result: no binding (tested: ratio below 3 at 3.7 nM Ab)

From US20240309103A1 (Regeneron, published 2024)
